The experiment has as its target extracellular domain of basigin (CD147-ED). Briefly: SPR; ProteOn XPR36, CD147-ED immobilised on an activated GLC chip; CD98-ED injected at 0, 3, 1.5, 0.75, 0.375, 0.1875 uM, association 180 s, dissociation 600 s; 1:1 binding model. For orientation: SPR reads the build-up and loss of mass on a sensor chip optically.

Data on one substance can be found in PMC4594993.

As usually defined, the Kd is the constant that tells how readily two partners part at equilibrium.

In turn, “extracellular domain of CD98 (CD98-ED, residues 111-530 of human 4F2hc) (domain or fragment)” returned a Kd of 187 nM.
